This assay addresses T1, MS2 bacteriophage coat protein (bacteriophage MS2), P03612.
T1 chain: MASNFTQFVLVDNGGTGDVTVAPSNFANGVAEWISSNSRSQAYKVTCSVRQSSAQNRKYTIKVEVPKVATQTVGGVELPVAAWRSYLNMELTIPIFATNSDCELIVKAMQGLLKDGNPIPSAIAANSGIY
The experiment in a line: SEC. The note with it: remark: other sources report otherwise.

This passage reports stoichiometry N results from publication PMC7079959.

B1: MS2 bacteriophage coat protein, P03612 1-130 (natural protein)
chain: T1 chain
For orientation: stoichiometry N means the number of molecules, sites or subunits per partner or assembly. The molecule B1 displayed a stoichiometry N of 2.
